# Assay results: patent publication US20120282269A1 (Boehringer Ingelheim, published 2012)
# Changes are numbered by the printed parent chain. “And” between values parts separate entries of the source, which are not always exact repeats. Equal entries are not always repeated.
# B1: Chimeric 6B8 (antibody, IgG1, V domains shown)
# VH: QVQLQQSDAELVKPGTSVKTSCKISGNTFTDQTIHWMKQRPEQGLEWIGYIYPRDDSPKYNENFKGKATLTADKSSSTAYMQLNSLTSEDSAVYFCAIPDRSGYAWFIYWGQGTLVTVSS
# VL: DIVMTQSHKFLSTSVGDRVTITCKASRDVAIAVAWYQQKPGQSPKLLLFWASTRHTGVPDRFTGSGSRTDFTLTISNVQSEDLADYFCHQYSSYPFTFGSGTKLEIK
# B2: 34G3 (antibody, V domains shown)
# VH: EFQLQQSGPELVKPGASVKISCKASGYSFTDYNMNWVKQSKGKSLEWIGVIIPNYGFTSYNQNFKGKATLTVDQSSSTAHMQLNSVTSEDSAVYYCVRDGGILLWYLDVWGTGTTVTVSS
# VL: DVVMTQTPLSLPVSLGDQASISCRSSQSLVHSNGNTYLHWYLQKPGQSPKLLIYKVSNRFSGVPDRFSGSGSGTDFTLKISRVEAEDLGVYFCSQSTHVPYTFGGGTKLEIN
# B3: 9D12 (antibody, V domains shown)
# VH: QVQLKESGPVLVAPSQSLSITCTVSGFSLNNFAISWVRQPPGKGLEWLGAIWTGGGTNYNSALKSRLSISKDNSKSQVFLKMNSLQTDDTARYYCVRKDYSYGGAMDYWGQGTSVTVSS
# VL: DIALTQSPASLAVSLGQRATISCRASETINFYGTSFMHWYQQKPGQSPKLLIYRASNLESGIPARFSGSGSRTDFTLTINPVEADDVATYYCQQTNEDPYTFGGGTKLEIK
# B4: Antibody A (antibody, human IgG1, kappa, L234A L235A, V domains shown)
# VH: QVQLVQSGAEVKKPGSSVKVSCKASGYTFTDQTIHWMRQAPGQGLEWIGYIYPRDDSPKYNENFKGKVTITADKSTSTAYMELSSLRSEDTAVYYCAIPDRSGYAWFIYWGQGTLVTVSS
# VL: DIQMTQSPSSLSASVGDRVTITCKASRDVAIAVAWYQQKPGKVPKLLIYWASTRHTGVPSRFSGSGSRTDFTLTISSLQPEDVADYFCHQYSSYPFTFGSGTKLEIKR
# B5: Chimeric 24A5 (antibody, V domains shown)
# VH: EVQLQQSGPELVKPGASVKMSCKASGYTFTTSIMHWVKQKPGQGLEWIGYINPYDDVTKYNEKFKGKATLTSDKSSSTAYMELSSLTSEDSAVYYCVRRWDEAYWGQGTLVTVSA
# VL: DIVMTQSPATLSVTPGNRVSLSCRASQSISDYLHWYQQKSHESPRLLIKYASQSISGIPSRFSGSGSGSNFTLSINSVEPEDVGVYYCQNGHSFPFTFGSGTKLEIK
# B6: 34D9 (antibody, V domains shown)
# VH: EVQLQQSGPELVKPGASVKIPCKASGYTFTDYNMDWVKKSHGKSLEWIGDINPHNGGTIYNQKFKGKATLTVDKSSSTAHMELRSLTSEDTAVYYCARNYYGSSYGWYFDVWGTGTTVTVSS
# VL: DIMMTQSHKFMSTSVGDRVSITCKASQDVGNAVVWYQQKPGQSPKLLIYWASTRHIGVPDRFTGSGSGTDFTLTITNVQSEDLADYFCQQYSSYLTFGAGTKLELK
# B7: Chimeric 18E5 (antibody, V domains shown)
# VH: EVQLQQSGPELVKPGAAVKMSCKASGYTFTRYLIHWVKQKPGQGLEWIGYINPYNDGTKYNEKFKGKATLTSDKSSSTAYMELSSLTSEDSAVYYCTSNWDLDYWGQGTTLTVSS
# VL: B5 VL with N17D, H34Y, Y50F, S63T, N70D, N76D, E81D, Y86F, Y87F, S100G
# Target: T1, natural human IL-23 from activated THP-1 cells (human, UniProt P29460 23-328)
# T1 sequence 1: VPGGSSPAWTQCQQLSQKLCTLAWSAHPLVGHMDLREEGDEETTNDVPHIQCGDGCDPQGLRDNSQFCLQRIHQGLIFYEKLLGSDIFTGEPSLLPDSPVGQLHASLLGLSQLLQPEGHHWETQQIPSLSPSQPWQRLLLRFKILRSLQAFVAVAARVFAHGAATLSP
# T1 sequence 2: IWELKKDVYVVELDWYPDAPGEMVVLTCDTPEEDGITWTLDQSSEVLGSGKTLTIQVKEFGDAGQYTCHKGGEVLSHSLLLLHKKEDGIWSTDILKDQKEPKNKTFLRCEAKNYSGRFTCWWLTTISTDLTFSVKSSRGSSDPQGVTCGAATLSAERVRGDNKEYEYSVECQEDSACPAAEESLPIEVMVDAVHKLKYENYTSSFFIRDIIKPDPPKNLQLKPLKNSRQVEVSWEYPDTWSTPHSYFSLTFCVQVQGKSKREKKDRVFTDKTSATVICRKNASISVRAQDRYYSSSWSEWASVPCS
# Assay: cell-based or functional assay
row,Binder,"IC50, inhibition of IL-17 production from IL-23 stimulated mouse splenocytes"
1,B1,0.005 nM and 0.002 nM and 0.006 nM and 0.003 nM
2,B2,0.027 nM and 0.025 nM
3,B3,0.281 nM and 0.138 nM
4,B4,0.001 nM
5,B5,0.095 nM and 0.102 nM
6,B6,0.456 nM

# Target: T2, recombinant human IL-23 (human, UniProt P29460 23-328)
# T2 sequence 1: T1 sequence 1
# T2 sequence 2: T1 sequence 2
# Assay: cell-based or functional assay
row,Binder,"IC50, inhibition of IL-17 production from IL-23 stimulated mouse splenocytes"
1,B1,0.026 nM and 0.037 nM and 0.057 nM
2,B2,0.336 nM
3,B3,0.059 nM
4,B4,0.005 nM and 0.015 nM
5,B7,0.031 nM
6,B5,0.404 nM
7,B6,0.51 nM

# Target: T3, human IL-12 (human, UniProt P29459 23-219; P29460 23-328)
# T3 sequence (looked up) 1: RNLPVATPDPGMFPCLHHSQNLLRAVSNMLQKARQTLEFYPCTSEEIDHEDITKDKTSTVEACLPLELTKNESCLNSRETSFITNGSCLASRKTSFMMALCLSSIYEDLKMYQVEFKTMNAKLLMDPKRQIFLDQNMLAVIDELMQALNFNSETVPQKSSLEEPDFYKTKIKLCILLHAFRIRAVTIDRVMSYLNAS
# T3 sequence (looked up) 2: T1 sequence 2
# Assay: cell-based or functional assay
row,Binder,"Average pg/ml IFN-γ +/- Standard Deviation, human PHA-derived T cell blasts with 1 ng/ml IL-12 (no antibody: 532 +/- 51; unstimulated: 87 +/- 7)"
1,B1,523 pg/mL
2,B4,497 pg/mL
3,B7,511 pg/mL
